From the supplement of paper PMC6755084

B1: F1*; the commonest letter at each place (parent)
chain: GAGACCGCAACTGAAAAGTTGTTATCACTTGTCGTAAGACACTTTGGATGGGTTGAAGTTCTGCACGTAGAAGCAAAAGGC

Variants of: B1
Assay: fraction ligated after 30 min (ligated reads / total reads); higher = more ligase activity
Conditions: with F1*sub RNA substrate (template-directed ligation), 42 °C
Procedure, shortened: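 Ribozyme variants were transcribed with T7 from PCR-amplified oligo-pool templates and gel-purified. Ligated and unligated bands, separated on gel, were reverse transcribed with barcoded primers and sequenced on a MiSeq, with core bases filtered at quality ≥20. Fraction ligated per variant was computed as ligated reads divided by total reads.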

Compared with GAGACCGCAACTGAAAAGTTGTTATCACTTGTCGTCAGAGACTTTGGATGGGTTGAAGTTCTGCACGTAGAAGCAAAAGGC, GAGACCGCAACTGAAAAGTTGTTATCACTTGTCGTCAGAAACTTTGGATGGGTTGAAGTTCTGCACGTAGAAGCAAAAGGC is lower in fraction ligated: 0.818 for the first, 0.804 for the second.

First: GAGACCGCAACTGAAAAGTTGTTATCACTTGTCGTCAGATACTTTGGATGGGTTGAAGTTCTGCACGTAGAAGCAAAAGGC
Second: GAGACCGCAACTGAAAAGTTGTTATCACTTGTCGTCAGACACTTTGGATGGGTTAAAGTTCTGCACGTAGAAGCAAAAGGC
The fraction ligated of the first is lower: 0.818 for the first, 0.827 for the second.

Compared with GAGACCGCAACTGAAAAGTTGTTATCACTTGTCGTCAGACACTTTGGATGGGTTTAAGTTCTGCACGTAGAAGCAAAAGGC, GAGACCGCAACTGAAAAGTTGTTATCACTTGTCGTCAGACACTTTGGATGGGTTCAAGTTCTGCACGTAGAAGCAAAAGGC is lower in fraction ligated: 0.797 for the first, 0.787 for the second.

First: GAGACCGCAACTGAAAAGTTGTTATCACTTGTCGTGAGACACTTTGGGTGGGTTGAAGTTCTGCACGTAGAAGCAAAAGGC
Second: GAGACCGCAACTGAAAAGTTGTTATCACTTGTCGTGAGACACTTTGGTTGGGTTGAAGTTCTGCACGTAGAAGCAAAAGGC
The fraction ligated of the first is higher: 0.798 for the first, 0.0834 for the second.

Going from GAGACCGCAACTGAAAAGTTGTTATCACTTGTCGTGAGACACTTTGGCTGGGTTGAAGTTCTGCACGTAGAAGCAAAAGGC to GAGACCGCAACTGAAAAGTTGTTATCACTTGTCGTCAGACACTTTGGATCGGTTGAAGTTCTGCACGTAGAAGCAAAAGGC, the fraction ligated falls from 0.773 to 0.454.

Going from GAGACCGCAACTGAAAAGTTGTTATCACTTGTCGTCAGACACTTTGGATAGGTTGAAGTTCTGCACGTAGAAGCAAAAGGC to GAGACCGCAACTGAAAAGTTGTTATCACTTGTCGTCAGACACTTTGGATTGGTTGAAGTTCTGCACGTAGAAGCAAAAGGC, the fraction ligated rises from 0.619 to 0.746.

Compared with GAGACCGCAACTGAAAAGTTGTTATCACTTGTCGTCAGACACTTTGGATGGGTTGATGTTCTGCACGTAGAAGCAAAAGGC, GAGACCGCAACTGAAAAGTTGTTATCACTTGTCGTCAGACACTTTGGATGGGTTGAGGTTCTGCACGTAGAAGCAAAAGGC is lower in fraction ligated: 0.844 for the first, 0.816 for the second.

Compared with GAGACCGCAACTGAAAAGTTGTTATCACTTGTCGTCAGACACTTTGGATGGGTTGACGTTCTGCACGTAGAAGCAAAAGGC, GAGACCGCAACTGAAAAGTTGTTATCACTTGTCGTGAGACACTTTGGATGGGTTGACGTTCTGCACGTAGAAGCAAAAGGC is higher in fraction ligated: 0.813 for the first, 0.863 for the second.

First: GAGACCGCAACTGAAAAGTTGTTATCACTTGTCGTGAGACACTTTGGATGGGTTGAGGTTCTGCACGTAGAAGCAAAAGGC
Second: GAGACCGCAACTGAAAAGTTGTTATCACTTGTCGTGAGACACTTTGGATGGGTTGATGTTCTGCACGTAGAAGCAAAAGGC
The fraction ligated of the first is higher: 0.88 for the first, 0.878 for the second.

First: GAGACCGCAACTGAAAAGTTGTTATCACTTGTCGTCAGACACTTTAGATGGGTTGAAGTTCTGCACGTAGAAGCAAAAGGC
Second: GAGACCGCAACTGAAAAGTTGTTATCACTTGTCGTCAGACACTTTTGATGGGTTGAAGTTCTGCACGTAGAAGCAAAAGGC
The fraction ligated of the first is higher: 0.793 for the first, 0.778 for the second.

Going from GAGACCGCAACTGAAAAGTTGTTATCACTTGTCGTCAGACACTTTCGATGGGTTGAAGTTCTGCACGTAGAAGCAAAAGGC to GAGACCGCAACTGAAAAGTTGTTATCACTTGTCGTGACACACTTTGGATGGGTTGAAGTTCTGCACGTAGAAGCAAAAGGC, the fraction ligated rises from 0.784 to 0.846.

First: GAGACCGCAACTGAAAAGTTGTTATCACTTGTCGTGAAACACTTTGGATGGGTTGAAGTTCTGCACGTAGAAGCAAAAGGC
Second: GAGACCGCAACTGAAAAGTTGTTATCACTTGTCGTGATACACTTTGGATGGGTTGAAGTTCTGCACGTAGAAGCAAAAGGC
The fraction ligated of the first is higher: 0.828 for the first, 0.806 for the second.

First: GAGACCGCAACTGAAAAGTTGTTATCACTTGTCGTGAGACAATTTGGATGGGTTGAAGTTCTGCACGTAGAAGCAAAAGGC
Second: GAGACCGCAACTGAAAAGTTGTTATCACTTGTCGTGAGACAGTTTGGATGGGTTGAAGTTCTGCACGTAGAAGCAAAAGGC
The fraction ligated of the first is lower: 0.836 for the first, 0.844 for the second.

Going from GAGACCGCAACTGAAAAGTTGTTATCACTTGTCGTGAGACATTTTGGATGGGTTGAAGTTCTGCACGTAGAAGCAAAAGGC to GAGACCGCAACTGAAAAGTTGTTATCACTTGTCGTCAGACACTTTGTATGGGTTGAAGTTCTGCACGTAGAAGCAAAAGGC, the fraction ligated falls from 0.849 to 0.356.

Going from GAGACCGCAACTGAAAAGTTGTTATCACTTGTCGTCAGACACTTTGCATGGGTTGAAGTTCTGCACGTAGAAGCAAAAGGC to GAGACCGCAACTGAAAAGTTGTTATCACTTGTCGTCAGACACTTTGAATGGGTTGAAGTTCTGCACGTAGAAGCAAAAGGC, the fraction ligated rises from 0.224 to 0.81.

Compared with GAGACCGCAACTGAAAAGTTGTTATCACTTGTCGTGAGACACTTTCGATGGGTTGAAGTTCTGCACGTAGAAGCAAAAGGC, GAGACCGCAACTGAAAAGTTGTTATCACTTGTCGTGAGACACTTTAGATGGGTTGAAGTTCTGCACGTAGAAGCAAAAGGC is higher in fraction ligated: 0.803 for the first, 0.836 for the second.

First: GAGACCGCAACTGAAAAGTTGTTATCACTTGTCGTGAGACACTTTGGATGGGTTGAAGTTCTGCACGTAGAAGCAAAAGGC
Second: GAGACCGCAACTGAAAAGTTGTTATCACTTGTCGTCAGACACTTGGGATGGGTTGAAGTTCTGCACGTAGAAGCAAAAGGC
The fraction ligated of the first is higher: 0.862 for the first, 0.362 for the second.

Going from GAGACCGCAACTGAAAAGTTGTTATCACTTGTCGTCAGACACTTCGGATGGGTTGAAGTTCTGCACGTAGAAGCAAAAGGC to GAGACCGCAACTGAAAAGTTGTTATCACTTGTCGTCAGACACTTAGGATGGGTTGAAGTTCTGCACGTAGAAGCAAAAGGC, the fraction ligated rises from 0.753 to 0.771.

Going from GAGACCGCAACTGAAAAGTTGTTATCACTTGTCGTGAGACGCTTTGGATGGGTTGAAGTTCTGCACGTAGAAGCAAAAGGC to GAGACCGCAACTGAAAAGTTGTTATCACTTGTCGTGAGACCCTTTGGATGGGTTGAAGTTCTGCACGTAGAAGCAAAAGGC, the fraction ligated rises from 0.788 to 0.795.

Compared with GAGACCGCAACTGAAAAGTTGTTATCACTTGTCGTGAGACTCTTTGGATGGGTTGAAGTTCTGCACGTAGAAGCAAAAGGC, GAGACCGCAACTGAAAAGTTGTTATCACTTGTCGTCAGACACTTTGGATGGGTTGGAGTTCTGCACGTAGAAGCAAAAGGC is lower in fraction ligated: 0.834 for the first, 0.794 for the second.

Compared with GAGACCGCAACTGAAAAGTTGTTATCACTTGTCGTCAGACACTTTGGATGGGTTGTAGTTCTGCACGTAGAAGCAAAAGGC, GAGACCGCAACTGAAAAGTTGTTATCACTTGTCGTCAGACACCTTGGATGGGTTGAAGTTCTGCACGTAGAAGCAAAAGGC is higher in fraction ligated: 0.804 for the first, 0.806 for the second.

Compared with GAGACCGCAACTGAAAAGTTGTTATCACTTGTCGTCAGACACATTGGATGGGTTGAAGTTCTGCACGTAGAAGCAAAAGGC, GAGACCGCAACTGAAAAGTTGTTATCACTTGTCGTCAGACACGTTGGATGGGTTGAAGTTCTGCACGTAGAAGCAAAAGGC is lower in fraction ligated: 0.82 for the first, 0.797 for the second.

Compared with GAGACCGCAACTGAAAAGTTGTTATCACTTGTCGTGTGACACTTTGGATGGGTTGAAGTTCTGCACGTAGAAGCAAAAGGC, GAGACCGCAACTGAAAAGTTGTTATCACTTGTCGTGGGACACTTTGGATGGGTTGAAGTTCTGCACGTAGAAGCAAAAGGC is lower in fraction ligated: 0.872 for the first, 0.864 for the second.

First: GAGACCGCAACTGAAAAGTTGTTATCACTTGTCGTGCGACACTTTGGATGGGTTGAAGTTCTGCACGTAGAAGCAAAAGGC
Second: GAGACCGCAACTGAAAAGTTGTTATCACTTGTCGTGAGAGACTTTGGATGGGTTGAAGTTCTGCACGTAGAAGCAAAAGGC
The fraction ligated of the first is lower: 0.835 for the first, 0.841 for the second.

Compared with GAGACCGCAACTGAAAAGTTGTTATCACTTGTCGTGAGATACTTTGGATGGGTTGAAGTTCTGCACGTAGAAGCAAAAGGC, GAGACCGCAACTGAAAAGTTGTTATCACTTGTCGTGAGAAACTTTGGATGGGTTGAAGTTCTGCACGTAGAAGCAAAAGGC is lower in fraction ligated: 0.861 for the first, 0.829 for the second.

Going from GAGACCGCAACTGAAAAGTTGTTATCACTTGTCGTCAGACAGTTTGGATGGGTTGAAGTTCTGCACGTAGAAGCAAAAGGC to GAGACCGCAACTGAAAAGTTGTTATCACTTGTCGTCAGACAATTTGGATGGGTTGAAGTTCTGCACGTAGAAGCAAAAGGC, the fraction ligated rises from 0.839 to 0.852.

Compared with GAGACCGCAACTGAAAAGTTGTTATCACTTGTCGTCAGACATTTTGGATGGGTTGAAGTTCTGCACGTAGAAGCAAAAGGC, GAGACCGCAACTGAAAAGTTGTTATCACTTGTCGTCAGACACTTTGGACGGGTTGAAGTTCTGCACGTAGAAGCAAAAGGC is lower in fraction ligated: 0.889 for the first, 0.712 for the second.

Going from GAGACCGCAACTGAAAAGTTGTTATCACTTGTCGTCAGACACTTTGGAGGGGTTGAAGTTCTGCACGTAGAAGCAAAAGGC to GAGACCGCAACTGAAAAGTTGTTATCACTTGTCGTCAGACACTTTGGAAGGGTTGAAGTTCTGCACGTAGAAGCAAAAGGC, the fraction ligated falls from 0.798 to 0.767.

Going from GAGACCGCAACTGAAAAGTTGTTATCACTTGTCGTCAGACACTCTGGATGGGTTGAAGTTCTGCACGTAGAAGCAAAAGGC to GAGACCGCAACTGAAAAGTTGTTATCACTTGTCGTCAGACACTATGGATGGGTTGAAGTTCTGCACGTAGAAGCAAAAGGC, the fraction ligated rises from 0.815 to 0.827.

First: GAGACCGCAACTGAAAAGTTGTTATCACTTGTCGTCAGACACTGTGGATGGGTTGAAGTTCTGCACGTAGAAGCAAAAGGC
Second: GAGACCGCAACTGAAAAGTTGTTATCACTTGTCGTCACACACTTTGGATGGGTTGAAGTTCTGCACGTAGAAGCAAAAGGC
The fraction ligated of the first is lower: 0.827 for the first, 0.838 for the second.

Going from GAGACCGCAACTGAAAAGTTGTTATCACTTGTCGTCATACACTTTGGATGGGTTGAAGTTCTGCACGTAGAAGCAAAAGGC to GAGACCGCAACTGAAAAGTTGTTATCACTTGTCGTCAAACACTTTGGATGGGTTGAAGTTCTGCACGTAGAAGCAAAAGGC, the fraction ligated rises from 0.838 to 0.846.

First: GAGACCGCAACTGAAAAGTTGTTATCACTTGTCGTGAGACACTTTGGATGGGTTGCAGTTCTGCACGTAGAAGCAAAAGGC
Second: GAGACCGCAACTGAAAAGTTGTTATCACTTGTCGTGAGACACTTTGGATGGGTTGGAGTTCTGCACGTAGAAGCAAAAGGC
The fraction ligated of the first is lower: 0.773 for the first, 0.814 for the second.

Compared with GAGACCGCAACTGAAAAGTTGTTATCACTTGTCGTGAGACACTTTGGATGGGTTGTAGTTCTGCACGTAGAAGCAAAAGGC, GAGACCGCAACTGAAAAGTTGTTATCACTTGTCGTGAGCCACTTTGGATGGGTTGAAGTTCTGCACGTAGAAGCAAAAGGC is lower in fraction ligated: 0.873 for the first, 0.791 for the second.

Compared with GAGACCGCAACTGAAAAGTTGTTATCACTTGTCGTGAGTCACTTTGGATGGGTTGAAGTTCTGCACGTAGAAGCAAAAGGC, GAGACCGCAACTGAAAAGTTGTTATCACTTGTCGTGAGGCACTTTGGATGGGTTGAAGTTCTGCACGTAGAAGCAAAAGGC is higher in fraction ligated: 0.815 for the first, 0.862 for the second.
